Measurements as given in US20110268755A1 (HEALTH RESEARCH, published 2011).

How the values were obtained:
H2-K^b = biological target: T1, H2-K^b (mouse, UniProt P01887 21-119; P01901 22-369, limits assumed); experiment: H2-K^b upregulation on RMA-S cells, 100 µM peptide, 37° C.
T1 construct: whole, on cells; also called murine MHC class I
T1 sequence (MHC heavy, looked up): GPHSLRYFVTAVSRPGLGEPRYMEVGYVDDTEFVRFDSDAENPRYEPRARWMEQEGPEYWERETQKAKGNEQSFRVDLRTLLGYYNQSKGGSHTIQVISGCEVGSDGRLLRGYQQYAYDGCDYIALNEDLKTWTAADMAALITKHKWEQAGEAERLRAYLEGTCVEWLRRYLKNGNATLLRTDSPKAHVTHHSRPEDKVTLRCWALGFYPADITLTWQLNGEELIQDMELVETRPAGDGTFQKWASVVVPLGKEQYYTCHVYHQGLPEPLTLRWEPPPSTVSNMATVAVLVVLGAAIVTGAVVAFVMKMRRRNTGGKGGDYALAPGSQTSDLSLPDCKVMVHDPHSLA
T1 sequence (b2m, looked up): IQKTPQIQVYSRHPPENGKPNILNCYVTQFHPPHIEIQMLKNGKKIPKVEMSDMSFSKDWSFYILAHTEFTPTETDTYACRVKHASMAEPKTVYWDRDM
Description: To obtain the data presented in FIG. 3, survivin peptide epitopes were used in conventional MHC class I peptide binding assays. Mean fluorescence in FIG. 3 represents binding of SVN peptides to H2-K^b. Upregulation of H2-K^b molecules on the surface of murine RMA-S cells which are deficient in the expression of surface MHC class I molecules was used to determine actual survivin peptide binding in vitro. Data presented in FIG. 3 represent the binding of 100 μM peptide at 37° C.

HLA-A*0201 [1] = biological target: T2, HLA-A*0201 (human); experiment: survivin/MHC Class I-specific HLA-A*0201 pentamer binding
T2 construct: also called human MHC class I; MHC I

HLA-A*0201 [2] = biological target: T2, HLA-A*0201; experiment: competitive peptide binding assay, displacement of fluorescently labeled HPV18-27 from HLA-A*0201
Description: To obtain the data summarized in FIGS. 4A and 4B, survivin peptide epitopes were used in MHC class I peptide competitive displacement assays. […] Positive control peptides (Flu & gp100) represent known immunogenic MHC class I ligands. Data represent mean fluorescence±S.E.M. of triplicate samples.

CFFCFKEL (also called SVN 57-64 wt) [SVN-57-64]
binding result (H2-K^b): binds

MFFCFKEL [SVN-57-64/M57]
binding result (H2-K^b): binds

QCFFCFKEL [wild type SVN56-64]
binding result (HLA-A*0201 [1]): binds

QMFFCFKEL (also called core peptide SVN56-64/M57) [SVN56-64/M57]
fold stronger binding than wild type SVN56-64 (HLA-A*0201 [1]): ~73 fold

DLAQCFFCFKELEGW [wild type SVN53-67]
binding result (HLA-A*0201 [2]): binds

B1: SVN53-67/M57 (peptide)
peptide: DLAQMFFCFKELEGW
notes: also called Survivin M57; Survivin-53-67/57M
fold stronger binding than wild type SVN53-67 (HLA-A*0201 [2]): ~12 fold

TLGEFLKL [SVN97-104]
binding result (H2-K^b): binds
